The Kd is the concentration at which binding is half-saturated. The low end stands for tighter binding, the high end for weaker binding. For orientation: koff means a measure of how fast the partners let go of each other. A lower koff goes with slow dissociation.

The target of assay [1] is T1, rat sclerostin (rat).
T1 chain: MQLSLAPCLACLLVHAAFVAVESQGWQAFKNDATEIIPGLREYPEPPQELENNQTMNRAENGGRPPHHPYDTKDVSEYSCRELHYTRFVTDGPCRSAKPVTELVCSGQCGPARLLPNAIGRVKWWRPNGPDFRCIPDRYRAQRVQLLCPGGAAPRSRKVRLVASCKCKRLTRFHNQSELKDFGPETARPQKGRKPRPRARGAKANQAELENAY
The assay is described as follows: SPR, pH 7.4, 37C. On the technique in general: Surface plasmon resonance follows binding to a sensor surface in real time, without labels.

In assay [2] the target is T2, cynomolgus sclerostin (cynomolgus monkey).
T2 chain: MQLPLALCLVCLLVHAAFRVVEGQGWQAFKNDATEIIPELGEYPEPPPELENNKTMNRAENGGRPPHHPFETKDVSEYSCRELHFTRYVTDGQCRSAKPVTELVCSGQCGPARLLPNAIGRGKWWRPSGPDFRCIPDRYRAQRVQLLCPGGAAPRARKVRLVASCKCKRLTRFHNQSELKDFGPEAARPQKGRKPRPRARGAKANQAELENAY
The assay can be described thus: SPR, pH 7.4 to 5.8, 37C.

Assay [3] addresses T1, rat sclerostin. The assay is described as follows: SPR, pH 5.8, 37C.
Assay [4] deals with T2, cynomolgus sclerostin. The assay is described as follows: SPR, pH 7.4, 37C.
The target in assay [5] is T3, mouse sclerostin (mouse).
T3 chain: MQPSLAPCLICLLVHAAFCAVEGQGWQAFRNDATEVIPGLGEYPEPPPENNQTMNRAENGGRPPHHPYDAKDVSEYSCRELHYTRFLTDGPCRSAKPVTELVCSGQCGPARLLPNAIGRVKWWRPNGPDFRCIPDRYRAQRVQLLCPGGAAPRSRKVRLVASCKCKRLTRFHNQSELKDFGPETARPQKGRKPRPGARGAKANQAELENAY
The assay can be described thus: SPR, pH 5.8, 37C.

The target of assay [6] is T4, human sclerostin (human).
T4 chain: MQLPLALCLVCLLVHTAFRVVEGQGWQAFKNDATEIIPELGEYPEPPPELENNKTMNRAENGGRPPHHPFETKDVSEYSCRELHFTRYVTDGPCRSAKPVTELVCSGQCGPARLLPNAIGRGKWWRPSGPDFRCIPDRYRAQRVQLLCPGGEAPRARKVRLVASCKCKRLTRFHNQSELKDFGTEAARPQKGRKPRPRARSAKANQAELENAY
The assay can be described thus: SPR, pH 7.4 to 5.8, 37C.

Assay [7] deals with T3, mouse sclerostin. The assay can be described thus: SPR, pH 7.4, 37C.
The target of assay [8] is T4, human sclerostin. The assay can be described thus: SPR, pH 7.4, 37C.
In assay [9] the target is T4, human sclerostin. The assay can be described thus: SPR, pH 5.8, 37C.
Assay [10] deals with T2, cynomolgus sclerostin. The assay is described as follows: SPR, pH 5.8, 37C.
The target of assay [11] is T1, rat sclerostin. The assay is described as follows: SPR, pH 7.4 to 5.8, 37C.

B1: mabA_pH1 (antibody, V domains shown)
VH: EVQLVQSGAEVKKPGASVKVSCKASGYTFTDYNMHWVRQAPGQGLEWMGEINPNSGHAGYNQKFKGRVTMTTDTSTSTAYMELRSLRSDDTAVYYCARLHYDDIYDDWYFDVWGQGTTVTVSS
VL: DIQMTQSPSSLSASVGDRVTITCRASHDISNYLNWYQQKPGKAPKLLIYYTSRLLSGVPSRFSGSGSGTDFTLTISSLQPEDFATYYCQQGDTLPYTFGGGTKVEIK
Take B1: the Kd amounted to 25.2 pM with rat sclerostin [1]; 4200 pM with rat sclerostin [3]; 202 pM in the assay with cynomolgus sclerostin [4]; 5210 pM with mouse sclerostin [5]; 63.2 pM with mouse sclerostin [7]; 213 pM with human sclerostin [8]. Besides, the figures for the koff in the assay with cynomolgus sclerostin [2] and in the assay with human sclerostin [6] were 0.0156 s⁻¹ and 0.0131 s⁻¹, respectively.

B2: mabA_NpH1 (antibody, V domains shown)
VH: EVQLVQSGAEVKKPGASVKVSCKASGYTFTDYNMHWVRQAPGQGLEWMGEINPNSGGAGYNQKFKGRVTMTTDTSTSTAYMELRSLRSDDTAVYYCARLGYDDIYDDWYFHVWGQGTTVTVSS
VL: DIQMTQSPSSLSASVGDRVTITCRASQDISNYLNWYQQKPGKAPKLLIYHTSRLLSGVPSRFSGSGSGTDFTLTISSLQPEDFATYYCQQGDTLPYTFGGGTKVEIK
Take B2: the Kd with rat sclerostin [1] amounted to 82.6 pM; in the assay with rat sclerostin [3], 292 pM; in the assay with cynomolgus sclerostin [4], 189 pM; with mouse sclerostin [5] it was 503 pM; with human sclerostin [9] it was 435 pM; with cynomolgus sclerostin [10], 459 pM. The Kd worked out at 204 pM with mouse sclerostin [7] and 193 pM with human sclerostin [8].

B3: mabA_NpH2 (antibody, V domains shown)
VH: EVQLVQSGAEVKKPGASVKVSCKASGYTFTDYNMHWVRQAPGQGLEWMGEINPNSGGAGYNQKFKGRVTMTTDTSTSTAYMELRSLRSDDTAVYYCARLGYDDIYDDWYFDVWGQGTTVTVSS
VL: DIQMTQSPSSLSASVGDRVTITCRASQDISNYLNWYQQKPGKAPKLLIYHTSRLLSGVPSRFSGSGSGTDFTLTISSLQPEDFATYYCQQGDTLPYTFGGGTKVEIK
With B3, the equilibrium dissociation constant (Kd) in the assay with rat sclerostin [1] turned out to be 6.61 pM; in the assay with rat sclerostin [3] it was 0.0736 pM; in the assay with cynomolgus sclerostin [4], 280 pM; with mouse sclerostin [5] it was 0.0168 pM; with human sclerostin [9], 690 pM; in the assay with cynomolgus sclerostin [10], 627 pM. Moreover, the results for the Kd with mouse sclerostin [7] and with human sclerostin [8] were 5.57 pM and 323 pM, respectively.

B4: mabA_pH3 (antibody, V domains shown)
VH: EVQLVQSGAEVKKPGASVKVSCKASGYTFTDYNMHWVRQAPGQGLEWMGEINPHSGHAGYNQKFKGRVTMTTDTSTSTAYMELRSLRSDDTAVYYCARLHYDDIHDDWYFDVWGQGTTVTVSS
VL: DIQMTQSPSSLSASVGDRVTITCRASHDISNYLNWYQQKPGKAPKLLIYYTSRLLSGVPSRFSGSGSGTDFTLTISSLQPEDFATYYCQQGDTLPYTFGGGTKVEIK
For B4, the figures for the Kd with rat sclerostin [1], in the assay with mouse sclerostin [5] and with mouse sclerostin [7] were 184 pM, 1050 pM and 287 pM, respectively. Further, the koff with rat sclerostin [11] came out at 0.0182 s⁻¹.

B5: mabA_pH2 (antibody, V domains shown)
VH: EVQLVQSGAEVKKPGASVKVSCKASGYTFTDYNMHWVRQAPGQGLEWMGEINPNSGHAGYNQKFKGRVTMTTDTSTSTAYMELRSLRSDDTAVYYCARLHYDHIYDDWYFDVWGQGTTVTVSS
VL: DIQMTQSPSSLSASVGDRVTITCRASHDISNYLNWYQQKPGKAPKLLIYYTSRLLSGVPSRFSGSGSGTDFTLTISSLQPEDFATYYCQQGDTLPYTFGGGTKVEIK
For B5, the Kd with rat sclerostin [1] came to 31.2 pM; with rat sclerostin [3], 4450 pM; in the assay with cynomolgus sclerostin [4], 252 pM; with mouse sclerostin [5] it was 5430 pM; with mouse sclerostin [7] it was 80.7 pM; in the assay with human sclerostin [8], 258 pM. The dissociation rate constant (koff) in the assay with cynomolgus sclerostin [2] worked out at 0.0165 s⁻¹; with human sclerostin [6], 0.0139 s⁻¹.
